These results are taken from paper PMC5773591, “Structural basis of trans-synaptic interactions between PTPδ and SALMs for inducing synapse formation” (Nature Communications, 2018).

First the molecules themselves.
B3: human SALM5 LRR–Ig-His6 (residues 18–378) (domain or fragment, UniProt Q96NI6 18-378, looked up)
chain: QICPKRCVCQILSPNLATLCAKKGLLFVPPNIDRRTVELRLADNFVTNIKRKDFANMTSLVDLTLSRNTISFITPHAFADLRNLRALHLNSNRLTKITNDMFSGLSNLHHLILNNNQLTLISSTAFDDVFALEELDLSYNNLETIPWDAVEKMVSLHTLSLDHNMIDNIPKGTFSHLHKMTRLDVTSNKLQKLPPDPLFQRAQVLATSGIISPSTFALSFGGNPLHCNCELLWLRRLSREDDLETCASPPLLTGRYFWSIPEEEFLCEPPLITRHTHEMRVLEGQRATLRCKARGDPEPAIHWISPEGKLISNATRSLVYDNGTLDILITTVKDTGAFTCIASNPAGEATQIVDLHIIKLP
notes: human SALM5 (synaptic adhesion-like molecule 5, Lrfn family), LRR–Ig, residues 18–378; Homodimer by SEC-MALS; The synaptogenic assay used another construct (entire ECD fused to Fc); also called SALM5 WT; apo-SALM5; source: Expi293F, transiently expressed, secreted, purified (Ni-NTA, Superdex200 SEC); not shown: His6, C-terminal, kept

One data set deals with IL1RAPL1 (Mus musculus) (UniProt P59823). The conditions noted are these: cited from earlier work.
Chain of IL1RAPL1 (Mus musculus) (P59823 25-357): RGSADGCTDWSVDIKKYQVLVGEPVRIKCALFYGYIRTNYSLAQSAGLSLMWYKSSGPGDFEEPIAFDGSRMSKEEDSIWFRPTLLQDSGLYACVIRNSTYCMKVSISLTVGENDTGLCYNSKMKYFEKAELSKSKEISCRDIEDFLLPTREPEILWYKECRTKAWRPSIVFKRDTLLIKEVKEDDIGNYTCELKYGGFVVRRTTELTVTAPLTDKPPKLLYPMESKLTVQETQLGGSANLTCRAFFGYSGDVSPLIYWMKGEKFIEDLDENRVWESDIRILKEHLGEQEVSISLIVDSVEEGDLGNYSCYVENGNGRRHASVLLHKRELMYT
The target in data set [1] is human SALM5 LRR–Ig-His6 R253A (human) (UniProt Q96NI6). Put plainly: SPR; Biacore T200, 25 °C, 10 mM Hepes-Na (pH 7.5), 200 mM NaCl, 0.05% Tween20; SALM5 proteins immobilised on a CM5 chip by amino coupling; PTPδ proteins injected as analytes (0.1–260 μM).
Data set [2] has as its target human SALM5 LRR–Ig-His6 Q134N (human) (UniProt Q96NI6). The data set is described as above.
Data set [3] addresses human SALM5 LRR–Ig-His6 L288A (human) (UniProt Q96NI6). Described as above.
For data set [4], the target named is human SALM5 LRR–Ig-His6 I321A (human) (UniProt Q96NI6). The data set is described as above.
Data set [5] concerns the target human SALM5 LRR–Ig-His6 I358A (human) (UniProt Q96NI6). The data set is described as above.
Data set [6] concerns the target human SALM5 LRR–Ig-His6 L249A (human) (UniProt Q96NI6). Described as above.
Data set [7] deals with human SALM5 LRR–Ig-His6 (residues 18–378) (human) (UniProt Q96NI6). The data set is described as above.
Data set [8] addresses B3. The data set is described as above. The conditions noted are these: both partners purified.
For data set [9], the target named is mouse PTPδ Ig1–Fn1 (A9B–) (mouse, UniProt Q64487 28-418, B– (meB insert 234ELRE237 absent)). The description is as above. The following applies: both partners purified.
Data set [10] concerns the molecule itself. Briefly: SEC-MALS; SALM LRR–Ig proteins at 0.5 g/L on ENrich SEC 650 in 20 mM Tris-HCl (pH 7.4), 250 mM NaCl; dimer of monomers. Background: Size exclusion chromatography separates by hydrodynamic size, large species first.

By Kd is commonly meant the constant that tells how readily two partners part at equilibrium. Take PTPδ (from UniProt Q64487): the Kd with IL1RAPL1 (Mus musculus) is 0.15 µM. Turning to “mouse PTPδ Ig1–Fn1 (A9B+)-His6 (domain or fragment)”, the Kd was 95.2 µM in data set [1]; 9 µM in [2]; 129 µM in [3]; 21.9 µM in [4]; 31.4 µM in data set [5]; 169 µM in [6]. This molecule also showed a Kd in data set [7] of 14.4 µM.

In turn, “mouse PTPδ Ig1–Fn1 (A9B+)-His6 L153A (domain or fragment)” came in with a Kd in [7] of 25 µM. The same measure, in the same setting: for “mouse PTPδ Ig1–Fn1 (A9B+)-His6 M137A (domain or fragment)” the value was 39.9 µM; for “mouse PTPδ Ig1–Fn1 (A9B+)-His6 M312A (domain or fragment)”, 37.3 µM. Still for that read-out and setting: for “mouse PTPδ Ig1–Fn1 (A9B+)-His6 V143A (domain or fragment)” the value was 150 µM; for “mouse PTPδ Ig1–Fn1 (A9B+)-His6 Y231A (domain or fragment)”, 70.9 µM; for “mouse PTPδ Ig1–Fn1 (A9B+)-His6 Y273A (domain or fragment)”, 77.5 µM. The same measure, in the same setting: with “mouse PTPδ Ig1–Fn1 (A–B+) (from UniProt Q64487 28-418) (domain or fragment)” the figure was 13.5 µM.

B1: mouse PTPδ Ig1–Fn1 (A9B+)-His6 Q209A (domain or fragment)
chain: ETPPRFTRTPVDQTGVSGGVASFICQATGDPRPKIVWNKKGKKVSNQRFEVIEFDDGSGSVLRIQPLRTPRDEAIYECVASNNVGEISVSTRLTVLREDQIPRGFPTIDMGPQLKVVERTRTATMLCAASGNPDPEITWFKDFLPVDTSNNNGRIKQLRSESIGGTPIRGALQIEQSEESDAGKYECVATNSAGTRYSAPANLYVRELREVRRVPPRFSIPPTNHEIMPGGSVNITCVAVGSPMPYVKWMLGAEDLTPEDDMPIGRNVLELNDVRQSANYTCVAMSTLGVIEAIAQITVKALPKPPGTPVVTESTATSITLTWDSGNPEPVSYYIIQHKPKNSEEPYKEIDGIATTRYSVAGLSPYSDYEFRVVAVNNIGRGPASEPVLTQ
The molecule B1 had a Kd in [8] of 21.9 ± 0.23 µM.

B2: mouse PTPδ Ig1–Fn1 (A9B+)-His6 R233A (domain or fragment)
chain: ETPPRFTRTPVDQTGVSGGVASFICQATGDPRPKIVWNKKGKKVSNQRFEVIEFDDGSGSVLRIQPLRTPRDEAIYECVASNNVGEISVSTRLTVLREDQIPRGFPTIDMGPQLKVVERTRTATMLCAASGNPDPEITWFKDFLPVDTSNNNGRIKQLRSESIGGTPIRGALQIEQSEESDQGKYECVATNSAGTRYSAPANLYVAELREVRRVPPRFSIPPTNHEIMPGGSVNITCVAVGSPMPYVKWMLGAEDLTPEDDMPIGRNVLELNDVRQSANYTCVAMSTLGVIEAIAQITVKALPKPPGTPVVTESTATSITLTWDSGNPEPVSYYIIQHKPKNSEEPYKEIDGIATTRYSVAGLSPYSDYEFRVVAVNNIGRGPASEPVLTQ
B2 returned a Kd in data set [8] of 24.8 ± 1.2 µM. For orientation: stoichiometry N means the number of molecules, sites or subunits per partner or assembly. In data set [9], B3 showed a Kd of 106 ± 17 µM. In addition, the “stoichiometry N” value in [10] stood at 2.

B4: mouse SALM2 LRR–Ig-His6 (residues 32–390) (domain or fragment, UniProt Q2WF71 32-390, looked up)
chain: QPCPGRCICQNVAPTLTMLCAKTGLLFVPPAIDRRVVELRLTDNFIAAVRRRDFANMTSLVHLTLSRNTIGQVAAGAFADLRALRALHLDSNRLAEVRGDQLRGLGNLRHLILGNNQIRKVESAAFDAFLSTVEDLDLSYNNLEALPWEAVGQMVNLNTLTLDHNLIDHIAEGTFVQLHKLVRLDMTSNRLHKLPPDGLFLRSQGGGPKPPTPLTVSFGGNPLHCNCELLWLRRLTREDDLETCATPEHLTDRYFWSIPEEEFLCEPPLITRQAGGRALVVEGQAVSLRCRAVGDPEPVVHWVAPDGRLLGNSSRTRVRGDGTLDVTITTLRDSGTFTCIASNAAGEATAPVEVCVVPL
notes: mouse SALM2 (synaptic adhesion-like molecule 2, Lrfn family), LRR–Ig, residues 32–390; Homodimer by SEC-MALS; source: Expi293F, transiently expressed, secreted, purified (Ni-NTA, Superdex200 SEC); not shown: His6, C-terminal, kept
Consider B4, for which, in data set [10], the “stoichiometry N” value stood at 2.
